30 sequences from the nanobody polyreactivity screen of Harvey et al. (2022) can be followed below.

The data set in a line: yeast display, Sf9 membrane polyspecificity reagent, FACS + sequencing; frameworks hold sequencing errors. The gist of the method:
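Genes from sorted yeast were amplified by colony PCR, read by MiSeq 2 × 250 sequencing and filtered on CDR length. These cells carried a synthetic nanobody library in Saccharomyces cerevisiae BJ5465 and were sorted by FACS into low and high (top ~1%) gates on anti-HA and streptavidin fluorescence. Polyreactivity is labelled according to the gate of origin.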
Regarding “QVQLVESGGGLVQAGGSLRLSCAASGRIIVDNTMGWYRQAPGQEREFVAVITSGGSTNYADSVKGRYTISRDNAKNTVYLQMNCLNPEDTAVYYCATEPGGYRFDDRPFQFGYWGQGTQVTVSS”, the “polyreactivity (PSR sort gate)” value is “low polyreactivity”.
Take “QVQLVESGGGLVQAGGSLRLSCAASGRIIVNNAMGWYRQAPGKERELVAAITRRGGSTYYADSVKGRFTISRDNAKNTVYLQMNSLKPEDTAVYYCARSNQRTVYVASDYWGQGTQVTVSS”: the “polyreactivity (PSR sort gate)” value is listed as “high polyreactivity”.
For the sequence “QVQLVESGGGLVQAGGSLRLSCAASGRIIWKNTMGWYRQAPGKERELVAAITYGGSTNYADSVKGRFTISRDNAKNTVYLQMNSLKPEDTAVYYCNAQISWDSGWGYSYHLDYWGQGTQVTVSS”, the “polyreactivity (PSR sort gate)” value is on record as “low polyreactivity”.
In the case of “QVQLVESGGGLVQAGGSLRLSCAASGRIIYKNAMGWYRQAPGKERELVAAITSSGGSTYYADSVKGRFTISRDNAKNTVYLQMNSLKPEDTAVYYCAAYAYGRFGKLNYWGQGTQVTVSS”, the “polyreactivity (PSR sort gate)” value was “low polyreactivity”.
In the case of “QVQLVESGGGLVQAGGSLRLSCAASGRIIYPNAIGWYRQAPGKERELVAGITSRGGSTYYADSVKGRFTSSRDNAKNTVYLQMNSLKPEDTAVYYCAKRYYYFYPDYDYWGQGTQVTVSS” it was “high polyreactivity”.
In the case of “QVQLVESGGGLVQAGGSLRLSCAASGRIIYSNAMGWYRQAHGKERELVASISPNTGTTYYADSVKGRFTISLDNAKNTVYLQMNSLKPEDTAVYYCAARGGYYQDGLVTGEAEYGYWGQGTQVTVSS” it was “low polyreactivity”; in that of “QVQLVESGGGLVQAGGSLRLSCAASGRIKDNVMGWYRQAPGKERELVAAITRSAGRTYYADSVKGRFTISRDNAKNTVYLQMNSLKPEDTAVYYCAAQAERYGYEYWGQGTQVTVSS”, “low polyreactivity”; in that of “QVQLVESGGGLVQAGGSLRLSCAASGRILAGYAMGWYRQAPGKERELVAVISVGTGSTYYADSVKGRFTISRDNAKNTVYLQMNSLKPEDTAVYYCAAVTAITSLRMGYWGQGTQVTVSS”, “low polyreactivity”.
The entry for “QVQLVESGGGLVQAGGSLRLSCAASGRILASNVMGWYRQAPGKEREFVASITYSGSSTYYADSVKGRFTISRDNAKNTVYLQMNSLKPEDTAVYYCATRYGYSDGDYWGQGTQVTVSS” is “low polyreactivity”; for “QVQLVESGGGLVQAGGSLRLSCAASGRILFGYAMGWYRQAPGKERELVADITSTGSTNYADSVKGRFTISRDNAKNTVYLQMNSLKPEDTAVYYCNARRESYYQRYRVDYWGQGTQVTVSS” it is “low polyreactivity”.
Consider “QVQLVESGGGLVQAGGSLRLSCAASGRILFHYAMGGSRPAPGKERELVAAITWRGGGTHYADSVKGRFTISRDNAKNTVYLQMNSLKPEDNAVYYCAADGWTYVYDYGYWGQGTQVTVSS”, for which the “polyreactivity (PSR sort gate)” value was “low polyreactivity”.
The entry for “QVQLVESGGGLVQAGGSLRLSCAASGRILFYYGMGWYRQAPGKERELVAAISKRGGSTYYADSVKGRFTISRDNAKNTVYLQMNSLKPEDTAVYYCAAVQPAWGNGYWGQGTQVTVSS” is “high polyreactivity”.
“QVQLVESGGGLVQAGGSLRLSCAASGRILGAYAMGWYRQPPGKERELVASISSGGRTYYADSVKGRFTISRDNAKNTVYLQMNSLKPEATAVYYCAKKKQLSVPASGYDYVYYWGQGTQVTVSS”: the “polyreactivity (PSR sort gate)” value is “high polyreactivity”.
For the sequence “QVQLVESGGGLVQAGGSLRLSCAASGRILGNNVMGWYRQAPGKERELVAAITSSGGRTYYADSVKGRFTISRDNAKNTVYLQMNSLKPEDTAVYYCAAERRYYGKFNYWGQGTQVTVSS”, the “polyreactivity (PSR sort gate)” value is given as “high polyreactivity”.
In the case of “QVQLVESGGGLVQAGGSLRLSCAASGRILGQYVMGWYRQAPGKERELVASIRSGGVSTYYADSVKGRFTISRDNAKNTVYLQMNSLKPEDTAVYYCAKGSPGPRRYKFDYWGQGTQVTVSS” it was “low polyreactivity”; in that of “QVQLVESGGGLVQAGGSLRLSCAASGRILGYYAMGWSRQAPGKEREFVAAITTRGGNTYYADSVKGRFTISRDNAKNTVYLQMNSLKPEDTAVYYCAAESYTYRDAPTYFTRMYYWGQGTQVTVSS”, “high polyreactivity”.
In the case of “QVQLVESGGGLVQAGGSLRLSCAASGRILHANAMGWYRQAPGKEREFVAAISVSGVSTYYADSVKGRFTISRDNAKNTVYLQMNSLKPEDTAVYYCNAETYSWYDYWGQGTQVTVSS”, the “polyreactivity (PSR sort gate)” value is recorded as “high polyreactivity”.
Take “QVQLVESGGGLVQAGGSLRLSCAASGRILKWNARGWYRHAPGKERELVAAISQSGGSTYYADSVKGRFTISRDNAKNTVYLQMNSLKPEDTAVYYCAARRGSKFWGQGTQVTVSS”: the “polyreactivity (PSR sort gate)” value is “low polyreactivity”.
For “QVQLVESGGGLVQAGGSLRLSCAASGRILKYYDMGWYRQAPGKERELVAAISVSGTSTYYADSVKGRFTISRDNAKNTVYLQMNSLKPEDTAVYYCATATGRYSFDYWGQGTQVTVSS”, the “polyreactivity (PSR sort gate)” value is given as “low polyreactivity”.
The entry for “QVQLVESGGGLVQAGGSLRLSCAASGRILKYYDMGWYRQAPGKERELVAAISVSGTSTYYADSVKGRFTISRDNAMNTVYLQMNSLKPEVTAVYYCATATGRYSFDYWGQGTQVTVSS” is “low polyreactivity”.
For the sequence “QVQLVESGGGLVQAGGSLRLSCAASGRILKYYDMGWYRQAPGKETELVAAISVSGTSTYYADSVKGRFTISRDNAKNTVYLQMNSLKPEDTAVYYCATATGRYSFDYWGKGTQVTVSS”, the “polyreactivity (PSR sort gate)” value is “low polyreactivity”.
In the case of “QVQLVESGGGLVQAGGSLRLSCAASGRILNSYAMGWYRQAPGKEREFVAAIRRSRGSPYYADSVKGRFTISRDNAKNTVYLQMNSLKPEETAVYYCAAGRRYSGSYDYWGQGTQVTVSS”, the “polyreactivity (PSR sort gate)” value was “high polyreactivity”.
Consider “QVQLVESGGGLVQAGGSLRLSCAASGRILPSNAMGWYRQSPGKERELVATISSSGGDTYYADSVKGRFTISRDNAKNTVYLQMNSLKPEDTAGYYCAADSTWEGGYKYEYWGQGTQVTVSS”, for which the “polyreactivity (PSR sort gate)” value was “low polyreactivity”.
In the case of “QVQLVESGGGLVQAGGSLRLSCAASGRILPYYAMGWYRQAPGKERELVAAISYSGGSTYYADSVKGRFTLSRDNGKNTFYLQMNSLKPEDTAVYYCNARPVKASYVGYNYWGQGTQVTVSS” it was “high polyreactivity”; in that of “QVQLVESGGGLVQAGGSLRLSCAASGRILQWYTMGWYRQAPGKERELVAAISGGGGRTYYADSVKGRFTNSRDIAKNTVYLQMNSLKPEDTAVYYCAKRGTGVYRVDYGYWGQGTQVTVSS”, “high polyreactivity”.
The entry for “QVQLVESGGGLVQAGGSLRLSCAASGRILRFYAMGWYRQAPGKERELVATISRSGGSTYYAESVKGRVTISRDNAKNTVDLQMNSLKPEDTAVDYCNAKFKGVSYKMDYWGQGTQVTVSS” is “high polyreactivity”.
Turning to “QVQLVESGGGLVQAGGSLRLSCAASGRILRGNAMGWYRQAPGKEREFFAAIRRSGGTSYYADSVKGRFTISRDNAKNTVYLQMNSLKPEDTAVYYCAATKYQTSGDRGYEHWGQGTQVTVSS”, the “polyreactivity (PSR sort gate)” value was “low polyreactivity”.
Turning to “QVQLVESGGGLVQAGGSLRLSCAASGRILRQYAMGWYRQAPGKESELVAAISRSGASTFYADSVKGRFTISRDNAKNTVYLQMNSLKPEDTAVYYCAAEHHAFTWAAINYGSWGQGTQVTVSS”, the “polyreactivity (PSR sort gate)” value was “high polyreactivity”.
Consider “QVQLVESGGGLVQAGGSLRLSCAASGRILRSYAMGWYRPAPGKERELVAAISWRGGSTYYADSVKGRFTISRDNAKNTVYLQMNSLKPEDTAVYYCAKRSYYPARYDYWGQGTQVTVSS”, for which the “polyreactivity (PSR sort gate)” value is “high polyreactivity”.
In the case of “QVQLVESGGGLVQAGGSLRLSCAASGRILRYNAMGWYRQAPGKERELVASISGNGGSTYYADSVKGRFTISRDNAKYTVYLQMNSLKPEDTAVYYWGQGTQVTVSS” it was “low polyreactivity”.
